# In patent publication US10766952B2, “Methods for reducing migraine frequency in a subject in need thereof” (Beth Israel Deaconess Medical Center, Inc., priority 2017, dated 2020):
# Legend:
# Type in all cases: in vivo, rat
# [1] = system: first-order trigeminovascular neurons (A-delta and C-type meningeal nociceptors); assay: Single-unit recording of first-order trigeminovascular neurons in the trigeminal ganglion activated by CSD
# Procedure: CSD was induced by pinprick 4 hours after drug/isotype infusion.
# [2] = system: wide-dynamic range (WDR) trigeminovascular neurons; assay: Activation of central trigeminovascular neurons by cortical spreading depression (CSD), WDR neurons
# Procedure: Cortical spreading depression (CSD) was induced mechanically by inserting a glass micropipette (tip diameter 25 μm) about 1 mm into the visual cortex for 10 sec. At a propagation rate of 3-5 mm/min, a single wave of CSD was expected to enter the neuronal receptive field within 1-2 min of cortical stimulation. For verification of CSD, cortical activity was recorded (electrocorticogram) with a glass micropipette (0.9% saline, ˜1 megohm, 7 um tip) placed just below the surface of the cerebral cortex (approximately 100 μm). The electrocorticogram electrode was positioned about 6 mm anterior to the visual cortex. […]
# The experimental protocol included two parts. […] In the first part, the baseline neuronal profile was established by (a) mapping the dural, cutaneous and corneal receptive field; (b) measuring responses (mean spikes/sec) to mechanical stimulation of the dura (with a fixed force), skin (brush, pressure, pinch) and cornea (brush), and (c) measuring spontaneous firing rate (recorded over 30 min prior to treatment). […] In the second part, CSD was induced 4 hours after administration of CGRP-mAb or isotype-conAb and 2 hours later (i.e., 6 hours after treatment) receptive field size, spontaneous activity rate, and response magnitude to stimulation of the dura, skin and cornea were measured again. […]
# [3] = system: high-threshold (HT) trigeminovascular neurons; assay: Activation and sensitization of central trigeminovascular neurons by cortical spreading depression (CSD), HT neurons; settings: for firing of HT neurons before CSD: 30 mg/kg IV, 4 hours after treatment; for firing of HT neurons after CSD: 6 hours after treatment; for expected CSD-induced activation of the HT neurons: 30 mg/kg IV 4 hours before CSD
# Procedure: Cortical spreading depression (CSD) was induced mechanically by inserting a glass micropipette (tip diameter 25 μm) about 1 mm into the visual cortex for 10 sec. At a propagation rate of 3-5 mm/min, a single wave of CSD was expected to enter the neuronal receptive field within 1-2 min of cortical stimulation. For verification of CSD, cortical activity was recorded (electrocorticogram) with a glass micropipette (0.9% saline, ˜1 megohm, 7 um tip) placed just below the surface of the cerebral cortex (approximately 100 μm). The electrocorticogram electrode was positioned about 6 mm anterior to the visual cortex.
# It was diluted in saline to a final dose of 30 mg/kg and administered intravenously (bolus injection, total volume 0.6-0.7 ml). A corresponding human IgG2 isotype control antibody (isotype-conAb) was also diluted in saline to a final dose of 30 mg/kg and administered intravenously (bolus injection, total volume 1.6-2.0 ml).
# The experimental protocol included two parts. The first part was designed to compare CGRP-mAb vs isotype-conAb effects on spontaneous and induced activity of naïve trigeminovascular neurons, and the second part was designed to test CGRP-mAb vs isotype-conAb effects on the activation and sensitization of trigeminovascular neurons by CSD. Both parts included sampling of WDR and HT neurons in male and female rats. In the first part, the baseline neuronal profile was established by (a) mapping the dural, cutaneous and corneal receptive field; (b) measuring responses (mean spikes/sec) to mechanical stimulation of the dura (with a fixed force), skin (brush, pressure, pinch) and cornea (brush), and (c) measuring spontaneous firing rate (recorded over 30 min prior to treatment). Once the baseline was established, CGRP-mAb or isotype-conAb were administered and receptive fields were remapped, neuronal responses to stimulation of the dura, skin and cornea were re-examined, and the spontaneous activity rate was re-sampled at 1, 2, 3, and 4 hours post-treatment. The resulting values for each measure were then compared with the respective baseline values obtained before treatment. In the second part, CSD was induced 4 hours after administration of CGRP-mAb or isotype-conAb and 2 hours later (i.e., 6 hours after treatment) receptive field size, spontaneous activity rate, and response magnitude to stimulation of the dura, skin and cornea were measured again. The resulting post-CSD values for each measure were then compared with the respective pre-CSD values obtained at the 4-hour post-treatment time. This part was initiated only in cases in which the physiological condition of the rats (heart rate, blood pressure, respiration, end tidal CO2) and the neuronal isolation signal (signal-to-noise ratio ≥1:3) were stable at the 4-hour post-treatment time point.
# To calculate the response magnitude to each stimulus, the mean firing frequency occurring before the onset of the first stimulus (30 min for spontaneous activity, 10 sec for mechanical stimulation of the dura, skin and cornea) was subtracted from the mean firing frequency that occurred throughout the duration of each stimulus. […] A neuron was considered activated when its mean firing rate after CSD exceeded its mean baseline activity by 2 standard deviations of that mean for a period >10 min, which translated to ≥33% increase in activity. […] Mean firing rates of respective values were compared using nonparametric statistics (Wilcoxon signed-ranks test). Two-tailed level of significance was set at 0.05.
# [4] = system: central trigeminovascular neurons in the medullary dorsal horn; assay: Activation of central trigeminovascular neurons by picrotoxin-induced seizure; settings: 30 mg/kg intravenously four hours before induction of seizure
# Description: Cortical electrodes were used to trace the magnitude, extent and progression of epileptiform seizures.
# Surgical preparation and single-unit recording. Single-unit recordings were obtained from neurons in the trigeminal ganglion and dorsal horn as described in previous studies (Burstein et al. (1998) J. Neurophysiol. 79: 964-82; Strassman and Levy (2006) J. Neurophysiol. 95: 1298-306; Strassman et al. (1996) Nature 384: 560-4; Zhang et al. (2010) J. Neurosci. 30: 8807-14; and Zhang et al. (2011) Ann. Neurol. 69: 855-65). Experiments were done in adult Sprague-Dawley rats (250 g to 350 g). Animals were anesthetized with urethane (1.2-1.5 g/kg), artificially ventilated with oxygen, and paralyzed. Body temperature was controlled, and end-tidal CO2 and oxygen saturation was monitored. For ganglion recordings, four separate craniotomies were made: over the contralateral cortex, to advance the microelectrode; over the ipsilateral parietal cortex, and the ipsilateral occipital cortex, for application of the picrotoxin and recording of electrocorticogram activity; and over the ipsilateral transverse sinus, for electrical and mechanical stimulation of dural afferents, and lidocaine application. For dorsal horn recording, the same craniotomies were made over the ipsilateral cortex and the ipsilateral transverse sinus, but no contralateral craniotomy was made. Instead, a laminectomy was made to expose the upper cervical spinal cord (C1-2) for microelectrode recording. In both the trigeminal ganglion and the dorsal horn recording experiments, the search stimulus for finding dura-sensitive neurons is single-shock electrical stimulation applied to the dura covering the transverse sinus.
# Seizure induction and electrocorticogram recording. […] For verification of seizure induction, cortical activity was recorded with a glass micropipette (0.9% saline, ˜1 megohm, 7 μm tip) placed just below the surface of the cerebral cortex, at the parietal and the occipital site. […]
# [5] = male and female rats, activated/tested
molecule,measurement,setting,value
"fremanezumab (antibody, humanized anti-CGRP antagonist antibody, vectors ATCC PTA-6867 and PTA-6866) heavy: EVQLVESGGGLVQPGGSLRLSCAASGFTFSNYWISWVRQAPGKGLEWVAEIRSESDASATHYAEAVKGRFTISRDNAKNSLYLQMNSLRAEDTAVYYCLAYFDYGLAIQNYWGQGTLVTVSSASTKGPSVFPLAPCSRSTSESTAALGCLVKDYFPEPVTVSWNSGALTSGVHTFPAVLQSSGLYSLSSVVTVPSSNFGTQTYTCNVDHKPSNTKVDKTVERKCCVECPPCPAPPVAGPSVFLFPPKPKDTLMISRTPEVTCVVVDVSHEDPEVQFNWYVDGVEVHNAKTKPREEQFNSTFRVVSVLTVVHQDWLNGKEYKCKVSNKGLPSSIEKTISKTKGQPREPQVYTLPPSREEMTKNQVSLTCLVKGFYPSDIAVEWESNGQPENNYKTTPPMLDSDGSFFLYSKLTVDKSRWQQGNVFSCSVMHEALHNHYTQKSLSLSPGK light: EIVLTQSPATLSLSPGERATLSCKASKRVTTYVSWYQQKPGQAPRLLIYGASNRYLGIPARFSGSGSGTDFTLTISSLEPEDFAVYYCSQSYNYPYTFGQGTKLEIKRTVAAPSVFIFPPSDEQLKSGTASVVCLLNNFYPREAKVQWKVDNALQSGNSQESVTEQDSKDSTYSLSSTLTLSKADYEKHKVYACEVTHQGLSSPVTKSFNRGEC",activation of meningeal nociceptors by CSD,[1]; FIGS. 20A and 20B,prevents the activation of most a-delta and some C-type meningeal nociceptors
same,a-delta fibers activated by CSD,"[1]; male rats, 30 mg/kg IV 4 hours before CSD, FIG. 21A",14%
same,C-fibers activated by CSD,"[1]; male rats, 30 mg/kg IV 4 hours before CSD, FIG. 21B",23%
same,neurons tested that were activated by CSD,"[1]; male rats, 30 mg/kg IV 4 hours before CSD, all neurons",20%
same,difference in WDR neurons activated by CSD versus isotype-conAb,[2]; 5/13 versus 4/10,2%
same,WDR neurons activated by CSD (case-by-case analysis),[2]; [5],5/13
same,difference in HT neurons activated by CSD versus isotype-conAb,[3]; 2/14 versus 13/13,86%
same,HT neuronal responses to dural indentation with VFH before CSD,[3]; female rats,10.5±1.6
same,HT neurons with expansion of dural receptive fields after CSD,[3]; female rats,0/6
same,HT neurons with expansion of facial receptive fields after CSD,[3]; female rats,0/6
same,firing of HT neurons before CSD,"[3]; female rats, 6 HT neurons",3.3±1.7 spikes/sec
same,firing of HT neurons after CSD,"[3]; female rats, 6 HT neurons, 2 hours after CSD, p=0.45",5.0±3.4 spikes/sec
same,HT neuronal response to brushing the cornea after CSD,"[3]; female rats, 6 HT neurons, p=0.51",remained unchanged
same,expected CSD-induced activation of the HT neurons,[3]; female rats,prevented
same,HT neuronal responses to dural indentation with VFH after CSD,"[3]; female rats, 2 hours after CSD, p=0.72",8.1±6.4
same,"HT neuronal responses to brush, pressure and pinch of the skin after CSD","[3]; male and female rats, 2 hours after CSD, p=0.35, 0.63, 0.78",remained unchanged
same,HT neurons activated by CSD (case-by-case analysis),[3]; [5],2/14
same,HT neuronal responses to dural indentation with VFH before CSD,[3]; male rats,1.8±0.6
same,HT neurons with expansion of dural receptive fields after CSD,[3]; male rats,2/8
same,HT neurons with expansion of facial receptive fields after CSD,[3]; male rats,2/8
same,HT neuronal response to brushing the cornea before CSD,"[3]; male rats, 8 HT neurons",10.8±3.3 spikes/sec
same,firing of HT neurons before CSD,"[3]; male rats, 8 HT neurons",1.2±0.6 spikes/sec
same,firing of HT neurons after CSD,"[3]; male rats, 8 HT neurons, 2 hours after CSD, p=0.29",1.9±1.5 spikes/sec
same,HT neuronal response to brushing the cornea after CSD,"[3]; male rats, 8 HT neurons, p=0.60",9.4±1.8 spikes/sec
same,expected CSD-induced activation of the HT neurons,[3]; male rats,prevented
same,HT neuronal responses to dural indentation with VFH after CSD,"[3]; male rats, 2 hours after CSD, p=0.83",1.9±1.5
same,neurons activated by the seizure,[4],15%
same,neurons activated by the seizure (activated/tested),[4],2/13
same,activation of central trigeminovascular neuron by seizure,[4]; FIG. 24,prevented the activation of a central trigeminovascular neuron
